Reference: the RNAGym collection of RNA variant scans (doi:10.1073/pnas.2313332121)

B1: TPR t1 (parent)
chain: GACCAAUCUGCCCUCAGAGCUCGAGAACAUCUUCGGAUGCAGAGGAGGCAGGCUUCGGUGGCGCGAUAGCGCCAACGUCCUCAACCUCCAAUGCAUCCCACCACAUGAUGAUGCCUGAAGAGCCUUGGUUUUUUG

Variants of: B1
Assay: polymerase ribozyme fitness, log enrichment relative to wild type (log ratio); higher = more active; in vitro selection for triplet polymerase activity
Outline: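 After PCR construction and transcription, each subunit's mutant library from a heterodimeric triplet polymerase ribozyme was annealed with a biotinylated primer, the partner subunit and triplets. Incubation was frozen, at −7 °C, and extended constructs were gel-excised, bound to streptavidin beads and amplified by RT-PCR, in one selection round done in triplicate. Fitness is the logarithm of a genotype's enrichment divided by that of the wild type, from inverse-variance-weighted replicate averages of Illumina-sequenced inputs and outputs. The base of the logarithm is 2, and genotypes needed ≥10 input reads and ≥1 read per output.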

Row | Variant | polymerase ribozyme fitness (log ratio)
1 | C12A C15U C70U C86U | -2.81
2 | C11U U54G G61U U106A G113C C114A | -6.66
3 | C12A C13G G45C G63A A119U C124A U132A | 0.867
4 | C12A A18G C82A C101A U130G | -7.19
5 | C12A A37C C40U G47A C73A | -4.88
6 | C12G A29U U55G C62U C102U G117A | -4.8
7 | C12A C13A C62U U78G C115G C124G G127U | -6.43
8 | C11U U32A G93A A100U A105G | -4.99
9 | C12A A121G | 1.96
10 | C12A G42C G69U C80U | -1.06
11 | C12A C72U G113C | -4.5
12 | C12A C80U A84U C89U A119G C123A | 0.231
13 | C12A C20A G63A | -3.86
14 | C12A C56U C94G | -2.21
15 | C11U U54G C73U C97U G120C | 0.506
16 | C11U G47A G61U U78A | -0.709
17 | C11U G107A | -6.13
18 | C12A A41G | -0.758
19 | C11U G45A G48A A74U | -2.5
20 | C12A A16C A29U G47A G61A | -3.43
21 | C11U G48C | -1.61

Row | Variant | polymerase ribozyme fitness (log ratio)
22 | C12A U112A | 1.18
23 | C11U G69A A84C C123U | -0.562
24 | C12A C89A | -1.87
25 | C12A A43U C56A | -2.54
26 | C12A U32C G45A U132A | -1.76
27 | C12A C49U U109A U116A C123G | -6.73
28 | C12A C72A G120C | 1.29
29 | C12A G45U | -1.63
30 | C12A C80A G120U | -0.968
31 | C12A G36C U55G C72U U96G | -4.76
32 | C12A U38C G44A C56G G93A C104G G110U | -7.49
33 | C11U G45C G57A G61U U132C | -3.81
34 | C12A C22U G45U C49U A68C G120U | -7.43
35 | C12A G61U U109G | -7.2
36 | C12A C123U | 0.76
37 | C12A C89G C114A | -4.11
38 | C12A G61A | -0.687
39 | C12A G61U | -0.581
40 | C12A U92A C97G C123G G128U | -6.73
41 | C12A C73A G120C A121U | 2.42
42 | C12A C20U C114U | -0.454

Row | Variant | polymerase ribozyme fitness (log ratio)
43 | C11U G39C U59C U81A A84G | -3.33
44 | C11U G44C A46U | -2.61
45 | C11U U133G | -0.78
46 | C12A U14G U81C G93C A119U G120C | -0.255
47 | C12A C70U U78G | -1.07
48 | C11U U87G C102U | -1.67
49 | C12A A46U C62U C98G C115G U132G | -6.35
50 | C12A G47A C72G G93A G135U | -4.39
51 | C12A C86U | -0.885
52 | C12A A50U C70A | -3.58
53 | C11U G47A G48A | -2.36
54 | C12A C13G G45C A119U C124A U132A | 0.6
55 | C12A G65U G110A U131G G135U | -7.22
56 | C12A C31A | -6.73
57 | C12A C31U | -4.6
58 | C11U G48U G57U G61C C89U U106A | -3.19
59 | C12A C101U | -0.736
60 | C12A G77A | -0.669
61 | C12A C62A U78G | -2.28
62 | C12A G48U C102A A118G | -4.24
63 | C12A A41C U92G A111G | -2.42

Row | Variant | polymerase ribozyme fitness (log ratio)
64 | C12A A75G | -0.0398
65 | C11U G63C | -1.64
66 | C11U G42C C64U C94U | -1.83
67 | C12A A91C U106A G117U | -5.61
68 | C12A A43U | -2.89
69 | C12A C56A C123U U131G | 0.231
70 | C12A G47C C49A U125A | -2.88
71 | C11U G71U U132C | -0.794
72 | C11U G61A A105G U106A | -0.0724
73 | C12A G48A | -0.767
74 | C11U U78A U87A C99U C115A | -4.73
75 | C12A C13U A95U A100U G110A | -2.79
76 | C11U G135A | -1.27
77 | C11U G135U | -1.81
78 | C12A A50U A74C A84G U112A | -4.85
79 | C12A C56G A84U | -1.85
80 | C12A C62G | -0.737
81 | C12A G45A C85A | -3.04
82 | C12A G61U C79A | -1.28
83 | C11U G35U A111U G122C | -6.28
